Data reported in US20240400696A1.

B1: AC3402 (bispecific antibody, V domains shown)
VH: EVQLLESGGGIVQPGGSLKLSCAASGFTFNTYAMNWVRQAPGKGLEWVARIRSKPNNYATYYADSVKDRFTISRDDSKNTVYLQMNNLKTEDTAVYYCVRHENFGNSYVSWFAHWGQGTLVTVSS
VL: ELVVTQEPSLTVSPGGTVTLTCRSSNGAVTSSNYANWVQQKPGQAPRGLIGGTNKRAPGTPARFSGSLLGGKAALTLSGVQPEDEAVYYCALWYPNLWVFGGGTKLTVL
B2: AC3412 (bispecific antibody, V domains shown)
VH: EVQLLESGGGIVQPGGSLKLSCAASGFTFNTYAMNWVRQAPGKGLEWVARIRSKYNNYGTYYADSVKDRFTISRDDSKNTVYLQMNNLKTEDTAVYYCVRHENFGNSYVSWFAHWGQGTLVTVSS
VL: ELVVTQEPSLTVSPGGTVTLTCRSSNGAVTSSNYANWVQQKPGQAPRGLIGGTNKRAPGTPARFSGSLLGGKAALTLSGVQPEDEAVYYCALWYPNLWVFGGGTKLTVL
B3: AC3423 (bispecific antibody, V domains shown)
VH: EVQLLESGGGIVQPGGSLKLSCAASGFTFNTYAMNWVRQAPGKGLEWVARIRSKYNNYATYYPDSVKDRFTISRDDSKNTVYLQMNNLKTEDTAVYYCVRHENFGNSYVSWFAHWGQGTLVTVSS
VL: ELVVTQEPSLTVSPGGTVTLTCRSSNGAVTSSNYANWVQQKPGQAPRGLIGGTNKRAPGTPARFSGSLLGGKAALTLSGVQPEDEAVYYCALWYPNLWVFGGGTKLTVL
B4: AC3419 (bispecific antibody, V domains shown)
VH: EVQLLESGGGIVQPGGSLKLSCAASGFTFNTYAMNWVRQAPGKGLEWVARIRSKYNNYATYQADSVKDRFTISRDDSKNTVYLQMNNLKTEDTAVYYCVRHENFGNSYVSWFAHWGQGTLVTVSS
VL: ELVVTQEPSLTVSPGGTVTLTCRSSNGAVTSSNYANWVQQKPGQAPRGLIGGTNKRAPGTPARFSGSLLGGKAALTLSGVQPEDEAVYYCALWYPNLWVFGGGTKLTVL
B5: AC3406 (bispecific antibody, V domains shown)
VH: EVQLLESGGGIVQPGGSLKLSCAASGFTFNTYAMNWVRQAPGKGLEWVARIRSKYENYATYYADSVKDRFTISRDDSKNTVYLQMNNLKTEDTAVYYCVRHENFGNSYVSWFAHWGQGTLVTVSS
VL: ELVVTQEPSLTVSPGGTVTLTCRSSNGAVTSSNYANWVQQKPGQAPRGLIGGTNKRAPGTPARFSGSLLGGKAALTLSGVQPEDEAVYYCALWYPNLWVFGGGTKLTVL
B6: AC3410 (bispecific antibody, V domains shown)
VH: EVQLLESGGGIVQPGGSLKLSCAASGFTFNTYAMNWVRQAPGKGLEWVARIRSKYNNFATYYADSVKDRFTISRDDSKNTVYLQMNNLKTEDTAVYYCVRHENFGNSYVSWFAHWGQGTLVTVSS
VL: ELVVTQEPSLTVSPGGTVTLTCRSSNGAVTSSNYANWVQQKPGQAPRGLIGGTNKRAPGTPARFSGSLLGGKAALTLSGVQPEDEAVYYCALWYPNLWVFGGGTKLTVL
B7: AC3415 (bispecific antibody, V domains shown)
VH: EVQLLESGGGIVQPGGSLKLSCAASGFTFNTYAMNWVRQAPGKGLEWVARIRSKYNNYATEYADSVKDRFTISRDDSKNTVYLQMNNLKTEDTAVYYCVRHENFGNSYVSWFAHWGQGTLVTVSS
VL: ELVVTQEPSLTVSPGGTVTLTCRSSNGAVTSSNYANWVQQKPGQAPRGLIGGTNKRAPGTPARFSGSLLGGKAALTLSGVQPEDEAVYYCALWYPNLWVFGGGTKLTVL
B8: AC3404 (bispecific antibody, V domains shown)
VH: EVQLLESGGGIVQPGGSLKLSCAASGFTFNTYAMNWVRQAPGKGLEWVARIRSKWNNYATYYADSVKDRFTISRDDSKNTVYLQMNNLKTEDTAVYYCVRHENFGNSYVSWFAHWGQGTLVTVSS
VL: ELVVTQEPSLTVSPGGTVTLTCRSSNGAVTSSNYANWVQQKPGQAPRGLIGGTNKRAPGTPARFSGSLLGGKAALTLSGVQPEDEAVYYCALWYPNLWVFGGGTKLTVL
B9: AC3409 (bispecific antibody, V domains shown)
VH: EVQLLESGGGIVQPGGSLKLSCAASGFTFNTYAMNWVRQAPGKGLEWVARIRSKYNNGATYYADSVKDRFTISRDDSKNTVYLQMNNLKTEDTAVYYCVRHENFGNSYVSWFAHWGQGTLVTVSS
VL: ELVVTQEPSLTVSPGGTVTLTCRSSNGAVTSSNYANWVQQKPGQAPRGLIGGTNKRAPGTPARFSGSLLGGKAALTLSGVQPEDEAVYYCALWYPNLWVFGGGTKLTVL
B10: AC3403 (bispecific antibody, V domains shown)
VH: EVQLLESGGGIVQPGGSLKLSCAASGFTFNTYAMNWVRQAPGKGLEWVARIRSKTNNYATYYADSVKDRFTISRDDSKNTVYLQMNNLKTEDTAVYYCVRHENFGNSYVSWFAHWGQGTLVTVSS
VL: ELVVTQEPSLTVSPGGTVTLTCRSSNGAVTSSNYANWVQQKPGQAPRGLIGGTNKRAPGTPARFSGSLLGGKAALTLSGVQPEDEAVYYCALWYPNLWVFGGGTKLTVL
B11: AC3417 (bispecific antibody, V domains shown)
VH: EVQLLESGGGIVQPGGSLKLSCAASGFTFNTYAMNWVRQAPGKGLEWVARIRSKYNNYATYDADSVKDRFTISRDDSKNTVYLQMNNLKTEDTAVYYCVRHENFGNSYVSWFAHWGQGTLVTVSS
VL: ELVVTQEPSLTVSPGGTVTLTCRSSNGAVTSSNYANWVQQKPGQAPRGLIGGTNKRAPGTPARFSGSLLGGKAALTLSGVQPEDEAVYYCALWYPNLWVFGGGTKLTVL
B12: AC3420 (bispecific antibody, V domains shown)
VH: EVQLLESGGGIVQPGGSLKLSCAASGFTFNTYAMNWVRQAPGKGLEWVARIRSKYNNYATYGADSVKDRFTISRDDSKNTVYLQMNNLKTEDTAVYYCVRHENFGNSYVSWFAHWGQGTLVTVSS
VL: ELVVTQEPSLTVSPGGTVTLTCRSSNGAVTSSNYANWVQQKPGQAPRGLIGGTNKRAPGTPARFSGSLLGGKAALTLSGVQPEDEAVYYCALWYPNLWVFGGGTKLTVL
B13: AC3413 (bispecific antibody, V domains shown)
VH: EVQLLESGGGIVQPGGSLKLSCAASGFTFNTYAMNWVRQAPGKGLEWVARIRSKYNNYTTYYADSVKDRFTISRDDSKNTVYLQMNNLKTEDTAVYYCVRHENFGNSYVSWFAHWGQGTLVTVSS
VL: ELVVTQEPSLTVSPGGTVTLTCRSSNGAVTSSNYANWVQQKPGQAPRGLIGGTNKRAPGTPARFSGSLLGGKAALTLSGVQPEDEAVYYCALWYPNLWVFGGGTKLTVL
B14: AC3407 (bispecific antibody, V domains shown)
VH: EVQLLESGGGIVQPGGSLKLSCAASGFTFNTYAMNWVRQAPGKGLEWVARIRSKYNDYATYYADSVKDRFTISRDDSKNTVYLQMNNLKTEDTAVYYCVRHENFGNSYVSWFAHWGQGTLVTVSS
VL: ELVVTQEPSLTVSPGGTVTLTCRSSNGAVTSSNYANWVQQKPGQAPRGLIGGTNKRAPGTPARFSGSLLGGKAALTLSGVQPEDEAVYYCALWYPNLWVFGGGTKLTVL
B15: AC3414 (bispecific antibody, V domains shown)
VH: EVQLLESGGGIVQPGGSLKLSCAASGFTFNTYAMNWVRQAPGKGLEWVARIRSKYNNYATDYADSVKDRFTISRDDSKNTVYLQMNNLKTEDTAVYYCVRHENFGNSYVSWFAHWGQGTLVTVSS
VL: ELVVTQEPSLTVSPGGTVTLTCRSSNGAVTSSNYANWVQQKPGQAPRGLIGGTNKRAPGTPARFSGSLLGGKAALTLSGVQPEDEAVYYCALWYPNLWVFGGGTKLTVL
B16: AC3418 (bispecific antibody, V domains shown)
VH: EVQLLESGGGIVQPGGSLKLSCAASGFTFNTYAMNWVRQAPGKGLEWVARIRSKYNNYATYEADSVKDRFTISRDDSKNTVYLQMNNLKTEDTAVYYCVRHENFGNSYVSWFAHWGQGTLVTVSS
VL: ELVVTQEPSLTVSPGGTVTLTCRSSNGAVTSSNYANWVQQKPGQAPRGLIGGTNKRAPGTPARFSGSLLGGKAALTLSGVQPEDEAVYYCALWYPNLWVFGGGTKLTVL
B17: AC3416 (bispecific antibody, V domains shown)
VH: EVQLLESGGGIVQPGGSLKLSCAASGFTFNTYAMNWVRQAPGKGLEWVARIRSKYNNYATTYADSVKDRFTISRDDSKNTVYLQMNNLKTEDTAVYYCVRHENFGNSYVSWFAHWGQGTLVTVSS
VL: ELVVTQEPSLTVSPGGTVTLTCRSSNGAVTSSNYANWVQQKPGQAPRGLIGGTNKRAPGTPARFSGSLLGGKAALTLSGVQPEDEAVYYCALWYPNLWVFGGGTKLTVL
B18: AC3408 (bispecific antibody, V domains shown)
VH: EVQLLESGGGIVQPGGSLKLSCAASGFTFNTYAMNWVRQAPGKGLEWVARIRSKYNEYATYYADSVKDRFTISRDDSKNTVYLQMNNLKTEDTAVYYCVRHENFGNSYVSWFAHWGQGTLVTVSS
VL: ELVVTQEPSLTVSPGGTVTLTCRSSNGAVTSSNYANWVQQKPGQAPRGLIGGTNKRAPGTPARFSGSLLGGKAALTLSGVQPEDEAVYYCALWYPNLWVFGGGTKLTVL
B19: AC3424 (bispecific antibody, V domains shown)
VH: EVQLLESGGGIVQPGGSLKLSCAASGFTFNTYAMNWVRQAPGKGLEWVARIRSKYNNYATYYADSVKGRFTISRDDSKNTVYLQMNNLKTEDTAVYYCVRHENFGNSYVSWFAHWGQGTLVTVSS
VL: ELVVTQEPSLTVSPGGTVTLTCRSSNGAVTSSNYANWVQQKPGQAPRGLIGGTNKRAPGTPARFSGSLLGGKAALTLSGVQPEDEAVYYCALWYPNLWVFGGGTKLTVL
B20: AC3411 (bispecific antibody, V domains shown)
VH: EVQLLESGGGIVQPGGSLKLSCAASGFTFNTYAMNWVRQAPGKGLEWVARIRSKYNNWATYYADSVKDRFTISRDDSKNTVYLQMNNLKTEDTAVYYCVRHENFGNSYVSWFAHWGQGTLVTVSS
VL: ELVVTQEPSLTVSPGGTVTLTCRSSNGAVTSSNYANWVQQKPGQAPRGLIGGTNKRAPGTPARFSGSLLGGKAALTLSGVQPEDEAVYYCALWYPNLWVFGGGTKLTVL
B21: AC3421 (bispecific antibody, V domains shown)
VH: EVQLLESGGGIVQPGGSLKLSCAASGFTFNTYAMNWVRQAPGKGLEWVARIRSKYNNYATYWADSVKDRFTISRDDSKNTVYLQMNNLKTEDTAVYYCVRHENFGNSYVSWFAHWGQGTLVTVSS
VL: ELVVTQEPSLTVSPGGTVTLTCRSSNGAVTSSNYANWVQQKPGQAPRGLIGGTNKRAPGTPARFSGSLLGGKAALTLSGVQPEDEAVYYCALWYPNLWVFGGGTKLTVL
B22: AC3422 (bispecific antibody, V domains shown)
VH: EVQLLESGGGIVQPGGSLKLSCAASGFTFNTYAMNWVRQAPGKGLEWVARIRSKYNNYATYYKDSVKDRFTISRDDSKNTVYLQMNNLKTEDTAVYYCVRHENFGNSYVSWFAHWGQGTLVTVSS
VL: ELVVTQEPSLTVSPGGTVTLTCRSSNGAVTSSNYANWVQQKPGQAPRGLIGGTNKRAPGTPARFSGSLLGGKAALTLSGVQPEDEAVYYCALWYPNLWVFGGGTKLTVL

Each binder was assayed against CD3 (assay: Octet, crude lysate).
CD3, sequence (P07766 23-126): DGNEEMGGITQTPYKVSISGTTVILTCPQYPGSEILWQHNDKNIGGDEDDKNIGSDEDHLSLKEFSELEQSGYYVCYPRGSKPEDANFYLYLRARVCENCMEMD

Question: B1 was tested. Which Kd did it give?
Answer: 33.1 nM

Question: With B2 as the binder, how does the Kd read?
Answer: 8.2 nM

Question: B3 was tested. Which Kd did it give?
Answer: 8.2 nM

Question: Which Kd does the source give for B4 here?
Answer: 7.2 nM

Question: For B5, which Kd is on record?
Answer: 575 nM

Question: How did the Kd turn out when B6 was run?
Answer: 6.1 nM

Question: For B7, which Kd is on record?
Answer: 183 nM

Question: B8 was tested. Which Kd did it give?
Answer: 10.5 nM

Question: B9 was tested. Which Kd did it give?
Answer: 11.3 nM

Question: Which Kd does the source give for B10 here?
Answer: 11.1 nM

Question: How did the Kd turn out when B11 was run?
Answer: 63.2 nM

Question: With B12 as the binder, how does the Kd read?
Answer: 8.3 nM

Question: B13 was tested. Which Kd did it give?
Answer: 10.7 nM

Question: B14 was tested. Which Kd did it give?
Answer: 7.4 nM

Question: B15 was tested. Which Kd did it give?
Answer: 939 nM

Question: B16 was tested. Which Kd did it give?
Answer: 9.7 nM

Question: Which Kd does the source give for B17 here?
Answer: 17.9 nM

Question: B18 was tested. Which Kd did it give?
Answer: 8.3 nM

Question: How did the Kd turn out when B19 was run?
Answer: 5.4 nM

Question: How did the Kd turn out when B20 was run?
Answer: 7.8 nM

Question: For B21, which Kd is on record?
Answer: 37.2 nM

Question: B22 was tested. Which Kd did it give?
Answer: 8 nM
